Measurements taken from patent publication CN114409782A (HUAI SHANGHAI BIOMEDICINE LTD COMPANY, dated 2022).
Substitutions are numbered along the chain they refer to.

B1: 抗IL13Ra2纳米抗体VHH-1 (VHH-mIgG2a Fc) (Fc fusion)
chain: QVQLVESGGGLVQPGGSLRLSCAASGFTLDYYAIAWFRQAPGKRREGVSCISSSEGSTNYADSVKGRFTISRDNAKNTVYLQMNSLKPEDTAVYYCAADSTGRCWARPLYEYDYRGQGTQVTVSS
notes: not shown: mouse IgG2a Fc tag from vector C-4pCP.Stuffer-mCg2a-FC
B2: 抗IL13Ra2纳米抗体VHH-13 (VHH-mIgG2a Fc) (Fc fusion)
chain: B1 chain with L11S, P14A, A23T, A24S, G26R
notes: as for B1
B3: 抗IL13Ra2纳米抗体VHH-7 (VHH-mIgG2a Fc) (Fc fusion)
chain: QVQLVESGGGLAHPGGRLRVTCTASGANLKNYAVGWFRQRPGKQREEVACLRVRYANTNKAPSVRERVHVFREENNNLVYMLMSDLTPEDTGIYYCAARPQQPSADCSLLANDYDNWGQGIQVTVSE
notes: as for B1

Each binder was assayed against T1, IL13Ra2抗原 (in solution, Biacore) (UniProt Q14627 27-343, limits assumed) (assay: SPR (Biacore), antibody fixed on chip, IL13Ra2 in solution).
T1 construct: also called IL13Rα2; 白介素13受体α2
T1 sequence (looked up): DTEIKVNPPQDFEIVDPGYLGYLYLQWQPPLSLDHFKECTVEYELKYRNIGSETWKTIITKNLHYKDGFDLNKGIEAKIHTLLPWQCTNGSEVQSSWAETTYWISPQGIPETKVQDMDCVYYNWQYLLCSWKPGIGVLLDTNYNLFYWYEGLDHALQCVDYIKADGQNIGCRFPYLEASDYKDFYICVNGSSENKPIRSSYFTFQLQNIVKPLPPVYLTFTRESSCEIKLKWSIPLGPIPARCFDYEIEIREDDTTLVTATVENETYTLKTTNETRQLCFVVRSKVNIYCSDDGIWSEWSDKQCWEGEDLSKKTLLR

Row | Binder | Kd [nM] | koff [s⁻¹] | kon [M⁻¹ s⁻¹]
1 | B1 | 16.1 | 0.00156 | 55300
2 | B2 | 16.6 | 0.00433 | 68300
3 | B3 | 32.4 | 0.00066 | 65400
